Assay results from patent US20250304643A1 (BAINAN BIOTECH, published 2025).
*1 amine or outer side, *2 acyl side, *3 side chain or, on linkers, in order; H or OH if unused. Where no end group is shown, it is not given here. Side-chain parts run from the residue outwards. [ ]: non-standard residue; d: D form. The star is where a group is joined. γGlu = O=C(O)[C@H](CCC(=O)[*:2])N[*:1]; HOOC(CH2)8CO = O=C(O)CCCCCCCCC(=O)*; Palmitoyl = CCCCCCCCCCCCCCCC(=O)*; Decanoyl = CCCCCCCCCC(=O)*; Aib = CC(C)(N)C(=O)O

T1: human glucose-dependent insulinotropic polypeptide receptor (human, UniProt P48546 22-466)
T1 sequence (looked up): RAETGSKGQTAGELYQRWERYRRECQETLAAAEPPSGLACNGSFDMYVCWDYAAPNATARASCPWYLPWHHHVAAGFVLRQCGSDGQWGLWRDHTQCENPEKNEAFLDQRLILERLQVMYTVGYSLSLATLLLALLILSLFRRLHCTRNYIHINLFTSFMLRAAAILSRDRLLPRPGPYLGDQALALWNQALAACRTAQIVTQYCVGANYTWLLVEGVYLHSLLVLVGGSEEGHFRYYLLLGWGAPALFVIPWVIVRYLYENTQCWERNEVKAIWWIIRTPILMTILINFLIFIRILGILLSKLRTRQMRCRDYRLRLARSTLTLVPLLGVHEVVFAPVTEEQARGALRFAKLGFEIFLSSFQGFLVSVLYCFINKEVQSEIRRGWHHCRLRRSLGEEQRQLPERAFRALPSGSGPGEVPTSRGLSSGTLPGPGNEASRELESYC

B1: Compound no. 12 (peptide)
peptide: H-H[Aib]DGTFISDYSK([γGlu-Palmitoyl])ILDNLAARDFINWLIQTKITK-OH
SMILES: CCCCCCCCCCCCCCCC(=O)N[C@@H](CCC(=O)NCCCC[C@H](NC(=O)[C@H](CO)NC(=O)[C@H](Cc1ccc(O)cc1)NC(=O)[C@H](CC(=O)O)NC(=O)[C@H](CO)NC(=O)[C@@H](NC(=O)[C@H](Cc1ccccc1)NC(=O)[C@@H](NC(=O)CNC(=O)[C@H](CC(=O)O)NC(=O)C(C)(C)NC(=O)[C@@H](N)Cc1c[nH]cn1)[C@@H](C)O)[C@@H](C)CC)C(=O)N[C@H](C(=O)N[C@@H](CC(C)C)C(=O)N[C@@H](CC(=O)O)C(=O)N[C@@H](CC(N)=O)C(=O)N[C@@H](CC(C)C)C(=O)N[C@@H](C)C(=O)N[C@@H](C)C(=O)N[C@@H](CCCNC(=N)N)C(=O)N[C@@H](CC(=O)O)C(=O)N[C@@H](Cc1ccccc1)C(=O)N[C@H](C(=O)N[C@@H](CC(N)=O)C(=O)N[C@@H](Cc1c[nH]c2ccccc12)C(=O)N[C@@H](CC(C)C)C(=O)N[C@H](C(=O)N[C@@H](CCC(N)=O)C(=O)N[C@H](C(=O)N[C@@H](CCCCN)C(=O)N[C@H](C(=O)N[C@H](C(=O)N[C@@H](CCCCN)C(=O)O)[C@@H](C)O)[C@@H](C)CC)[C@@H](C)O)[C@@H](C)CC)[C@@H](C)CC)[C@@H](C)CC)C(=O)O
B2: Compound no. 7 (peptide)
peptide: Palmitoyl-H[Aib]DGTFISDYSTILDNLAARDFIEWLIQTKITK-OH
SMILES: CCCCCCCCCCCCCCCC(=O)N[C@@H](Cc1c[nH]cn1)C(=O)NC(C)(C)C(=O)N[C@@H](CC(=O)O)C(=O)NCC(=O)N[C@H](C(=O)N[C@@H](Cc1ccccc1)C(=O)N[C@H](C(=O)N[C@@H](CO)C(=O)N[C@@H](CC(=O)O)C(=O)N[C@@H](Cc1ccc(O)cc1)C(=O)N[C@@H](CO)C(=O)N[C@H](C(=O)N[C@H](C(=O)N[C@@H](CC(C)C)C(=O)N[C@@H](CC(=O)O)C(=O)N[C@@H](CC(N)=O)C(=O)N[C@@H](CC(C)C)C(=O)N[C@@H](C)C(=O)N[C@@H](C)C(=O)N[C@@H](CCCNC(=N)N)C(=O)N[C@@H](CC(=O)O)C(=O)N[C@@H](Cc1ccccc1)C(=O)N[C@H](C(=O)N[C@@H](CCC(=O)O)C(=O)N[C@@H](Cc1c[nH]c2ccccc12)C(=O)N[C@@H](CC(C)C)C(=O)N[C@H](C(=O)N[C@@H](CCC(N)=O)C(=O)N[C@H](C(=O)N[C@@H](CCCCN)C(=O)N[C@H](C(=O)N[C@H](C(=O)N[C@@H](CCCCN)C(=O)O)[C@@H](C)O)[C@@H](C)CC)[C@@H](C)O)[C@@H](C)CC)[C@@H](C)CC)[C@@H](C)CC)[C@@H](C)O)[C@@H](C)CC)[C@@H](C)O
B3: Compound no. 18 (peptide)
peptide: {HOOC(CH2)8CO}-H[Aib]DGTFISDYST[Aib]LDNLAARDFINWLIQTKITK-OH
SMILES: CC[C@H](C)[C@H](NC(=O)[C@H](Cc1ccccc1)NC(=O)[C@H](CC(=O)O)NC(=O)[C@H](CCCNC(=N)N)NC(=O)[C@H](C)NC(=O)[C@H](C)NC(=O)[C@H](CC(C)C)NC(=O)[C@H](CC(N)=O)NC(=O)[C@H](CC(=O)O)NC(=O)[C@H](CC(C)C)NC(=O)C(C)(C)NC(=O)[C@@H](NC(=O)[C@H](CO)NC(=O)[C@H](Cc1ccc(O)cc1)NC(=O)[C@H](CC(=O)O)NC(=O)[C@H](CO)NC(=O)[C@@H](NC(=O)[C@H](Cc1ccccc1)NC(=O)[C@@H](NC(=O)CNC(=O)[C@H](CC(=O)O)NC(=O)C(C)(C)NC(=O)[C@H](Cc1c[nH]cn1)NC(=O)CCCCCCCCC(=O)O)[C@@H](C)O)[C@@H](C)CC)[C@@H](C)O)C(=O)N[C@@H](CC(N)=O)C(=O)N[C@@H](Cc1c[nH]c2ccccc12)C(=O)N[C@@H](CC(C)C)C(=O)N[C@H](C(=O)N[C@@H](CCC(N)=O)C(=O)N[C@H](C(=O)N[C@@H](CCCCN)C(=O)N[C@H](C(=O)N[C@H](C(=O)N[C@@H](CCCCN)C(=O)O)[C@@H](C)O)[C@@H](C)CC)[C@@H](C)O)[C@@H](C)CC
B4: Compound no. 35 (peptide)
peptide: H[Aib]DGTFISDYSK([γGlu-Palmitoyl])[Aib]LDNLAARDFINWLIQTKITK-OH
modifications: N-terminus assumed
SMILES: CCCCCCCCCCCCCCCC(=O)N[C@@H](CCC(=O)NCCCC[C@H](NC(=O)[C@H](CO)NC(=O)[C@H](Cc1ccc(O)cc1)NC(=O)[C@H](CC(=O)O)NC(=O)[C@H](CO)NC(=O)[C@@H](NC(=O)[C@H](Cc1ccccc1)NC(=O)[C@@H](NC(=O)CNC(=O)[C@H](CC(=O)O)NC(=O)C(C)(C)NC(=O)[C@@H](N)Cc1c[nH]cn1)[C@@H](C)O)[C@@H](C)CC)C(=O)NC(C)(C)C(=O)N[C@@H](CC(C)C)C(=O)N[C@@H](CC(=O)O)C(=O)N[C@@H](CC(N)=O)C(=O)N[C@@H](CC(C)C)C(=O)N[C@@H](C)C(=O)N[C@@H](C)C(=O)N[C@@H](CCCNC(=N)N)C(=O)N[C@@H](CC(=O)O)C(=O)N[C@@H](Cc1ccccc1)C(=O)N[C@H](C(=O)N[C@@H](CC(N)=O)C(=O)N[C@@H](Cc1c[nH]c2ccccc12)C(=O)N[C@@H](CC(C)C)C(=O)N[C@H](C(=O)N[C@@H](CCC(N)=O)C(=O)N[C@H](C(=O)N[C@@H](CCCCN)C(=O)N[C@H](C(=O)N[C@H](C(=O)N[C@@H](CCCCN)C(=O)O)[C@@H](C)O)[C@@H](C)CC)[C@@H](C)O)[C@@H](C)CC)[C@@H](C)CC)C(=O)O
B5: Compound no. 8 (peptide)
peptide: Palmitoyl-H[Aib]DGTFISDYSTILDNLAARDFIEWLIQTKIT-OH
SMILES: CCCCCCCCCCCCCCCC(=O)N[C@@H](Cc1c[nH]cn1)C(=O)NC(C)(C)C(=O)N[C@@H](CC(=O)O)C(=O)NCC(=O)N[C@H](C(=O)N[C@@H](Cc1ccccc1)C(=O)N[C@H](C(=O)N[C@@H](CO)C(=O)N[C@@H](CC(=O)O)C(=O)N[C@@H](Cc1ccc(O)cc1)C(=O)N[C@@H](CO)C(=O)N[C@H](C(=O)N[C@H](C(=O)N[C@@H](CC(C)C)C(=O)N[C@@H](CC(=O)O)C(=O)N[C@@H](CC(N)=O)C(=O)N[C@@H](CC(C)C)C(=O)N[C@@H](C)C(=O)N[C@@H](C)C(=O)N[C@@H](CCCNC(=N)N)C(=O)N[C@@H](CC(=O)O)C(=O)N[C@@H](Cc1ccccc1)C(=O)N[C@H](C(=O)N[C@@H](CCC(=O)O)C(=O)N[C@@H](Cc1c[nH]c2ccccc12)C(=O)N[C@@H](CC(C)C)C(=O)N[C@H](C(=O)N[C@@H](CCC(N)=O)C(=O)N[C@H](C(=O)N[C@@H](CCCCN)C(=O)N[C@H](C(=O)N[C@H](C(=O)O)[C@@H](C)O)[C@@H](C)CC)[C@@H](C)O)[C@@H](C)CC)[C@@H](C)CC)[C@@H](C)CC)[C@@H](C)O)[C@@H](C)CC)[C@@H](C)O

target: T1, human glucose-dependent insulinotropic …; test: cell-based or functional assay

Point of comparison: B5, “Efficacy GIPR” value 108%. Against it:
- B1 — lower, 107%
- Palmitoyl-HADGTFISDYSTILDNLAARDFINWLIQTKITD [Compound no. 4] — lower, 96%
- B2 — higher, 114%
- B3 — lower, 77%
- Decanoyl-HADGTFISDYSTILDNLAAKDFINWLIQTKITKNDWKHNITQ [Compound no. 3] — lower, 76%
- B4 — lower, 106%
